The target of the assay is Wnt receptors on the cell surface of the HEK293 TCF9-SEAP reporter cell line. As to the kind of experiment: cell-based or functional assay.

The text below walks through data of US20230143582A1.

Consider “recombinant human Wnt3a protein (from UniProt P56704 19-352) (ligand)”, for which the ED50 in the HEK293 TCF9-Secreted Alkaline Phosphatase (SEAP) Wnt-responsive reporter assay, lot DLGC02 amounted to 0.221 µg/mL; the ED50 in the HEK293 TCF9-Secreted Alkaline Phosphatase (SEAP) Wnt-responsive reporter assay, lot RSK51 was 0.145 µg/mL; the ED50 in the HEK293 TCF9-Secreted Alkaline Phosphatase (SEAP) Wnt-responsive reporter assay, lot RSK69 amounted to 0.191 µg/mL.
